From paper PMC11323569 (mBio, 2024)

B1: PrgK_(SLT-CHAP) (residues 530-871) (domain or fragment)
chain: LLGSADFSPGASVEKRAQAVYDYLSKKGYTKEGISAILGNFSVESGINPKRAEGDYLNPPVGAHGNSWDEPSWLSMGGPQIYGGRFPNILHRGLGLGQWTDTADGGRRHTLLLDYAKGKNKKWYDLQLQLDFIFDGDAPGSRTAADNVARSKVAATIPELTTYFLTVWEGNPGDKLGERIQAAQNWFTFFSRSGTPIGGSGSEVFAQYKEKMQPLPTDRETKAGQGWPGNAYAPGNCTWYVFNRFAQLGKSIHPTMGNANQWVHNYSQTPGATLESAPKKGDAVIFTNGVAGSSTQYGHVAYVEHVNSDGSFVISEMNVSGEYSMNWRVLKKEAGEYFMRLN
B2: PrgKEC, extracytoplasmic region of PrgK (residues 273-871) (domain or fragment)
chain: ASSTQKPAIVQEEEDLTASWTYFTKLDAQHTDDNNLFYSNIDEVLFYMNYRYDDFKLLDMDSTGTKNFETILSELWTALNGKKPDYQLKTMQSLETDKKSSYFIEEEQAKHYQEIKKELGYQTLDDLLSFPVKTDALIVNKRYGYDKSKEKLTLYQGIDVLIEDNQPFHSPMNGQIVSVPDTETLVIEKEKVARLTIRGVNTLRLTKGMDVEEGTFLGNTKNSTVTFQYEKYKKETKDWFFVNPAFYFPRVTYTQTTLLGSADFSPGASVEKRAQAVYDYLSKKGYTKEGISAILGNFSVESGINPKRAEGDYLNPPVGAHGNSWDEPSWLSMGGPQIYGGRFPNILHRGLGLGQWTDTADGGRRHTLLLDYAKGKNKKWYDLQLQLDFIFDGDAPGSRTAADNVARSKVAATIPELTTYFLTVWEGNPGDKLGERIQAAQNWFTFFSRSGTPIGGSGSEVFAQYKEKMQPLPTDRETKAGQGWPGNAYAPGNCTWYVFNRFAQLGKSIHPTMGNANQWVHNYSQTPGATLESAPKKGDAVIFTNGVAGSSTQYGHVAYVEHVNSDGSFVISEMNVSGEYSMNWRVLKKEAGEYFMRLN
notes: also called PrgKEC wild type; extracellular domain of PrgK; source: E. coli BL21(DE3), purified (Ni-NTA, PreScission elution, Superdex-200 SEC)
B3: PrgK_(CHAP) (residues 723-871) (domain or fragment)
chain: GTPIGGSGSEVFAQYKEKMQPLPTDRETKAGQGWPGNAYAPGNCTWYVFNRFAQLGKSIHPTMGNANQWVHNYSQTPGATLESAPKKGDAVIFTNGVAGSSTQYGHVAYVEHVNSDGSFVISEMNVSGEYSMNWRVLKKEAGEYFMRLN
notes: also called CHAP domain; source: E. coli BL21(DE3), purified (IMAC fractions)

Columns and labels:
[1] = target: PrgKEC, extracytoplasmic region of PrgK (residues 273-871) (Enterococcus faecalis (plasmid pCF10)) (UniProt Q5G3P4); test: […], pH 5.0, 100 mM NaCl; […]
non-reducing SDS-PAGE = target: the molecule itself; test: non-reducing SDS-PAGE
[2] = target: the molecule itself; test: […], pH 5.0, 100 mM NaCl; […]

| Molecule | binding result (non-reducing SDS-PAGE) | further results |
| --- | --- | --- |
| PrgL_(32-208), extracellular domain of PrgL (domain or fragment) |  | stoichiometry N (PrgL32-208 per PrgKEC (1:1)) [1]: 1 |
| B1 | binds |  |
| B2 |  | stoichiometry N [2]: 2 chains in the oligomer (dimer) |
| B3 | binds |  |
